Experimental data from publication PMC12432127, “Assessing the potential of bacterial signal peptides for radiopharmaceutical applications” (Scientific Reports, 2025).
Residues, ends and D or L forms follow the SMILES beside them. Groups on a side chain read outwards from the residue. No end group written: not given here. *: point of attachment. FITC = O=C1OC2(c3ccc(O)cc3Oc3cc(O)ccc32)c2ccc(NC(=S)*)cc21; DOTA = O=C(O)CN1CCN(CC(=O)O)CCN(CC(=O)*)CCN(CC(=O)O)CC1; Ahx = NCCCCCC(=O)O; For = O=C*

Key:
[1] = set-up: species or system mice; settings: mouse, in vivo, iv
Procedure: (§1) All experiments involving animals were performed in accordance with an animal experimentation license approved by the Zurich Cantonal Veterinary Office, Switzerland (Jason P. Holland; license number ZH095/2023), and in compliance with the […] Animal Welfare Act. This study is reported in accordance with the ARRIVE guidelines (https://arriveguidelines.org). Six to eight-week old male NOD/SCID mice (17-20 g) were obtained from Charles River Laboratories (Lyon, France). Mice were provided with food and water ad libitum. For planar scintigraphy imaging and ex vivo biodistribution studies, mice were injected with 100 μL sterile saline formulations of ~ 250 pmol (~ 10 MBq) [^177Lu]Lu-[…] by intravenous tail-vein injection and anesthetized with isoflurane (2-4% in air). Imaging was performed on Gamma-eye scanner (Bioemtech, Greece) at 5 min and 1 h p.i. Directly after imaging at 1 h p.i., animals were euthanised by isoflurane asphyxiation followed by terminal exsanguination. A total of 13 tissues were removed, rinsed in water, dried in air for approx. 2 min., weighed and counted on a calibrated gamma counter for accumulation of activity. The mass of radiotracer formulation injected into each animal was measured and used to determine the total number of counts per minute (cpm) injected into each mouse by comparison to a standard syringe of known activity and mass.

in vivo = assay: in vivo; set-up: species or system mice; settings: male, NOD/SCID, mouse, iv, 250 pmol, total radioactivity
Procedure: as §1

[2] = Stability in human plasma (radio-HPLC); format: in vitro ADME
Procedure: The radiolabelled compound (50 µL) was added to male human AB plasma (500 µL, Sigma Aldrich, USA, male AB) and incubated at 37 °C. Samples of 100 µL were taken at selected time points. The plasma proteins were precipitated with acetonitrile (-20 °C) and the precipitate was centrifuged for 1 min at 1500 rpm. The supernatant was analyzed by analytical radio-HPLC.

FPR1 = biological target: T1, FPR1 (Homo sapiens, UniProt P21462); assay: Cell internalization of radiotracer, FPR1 transfected HEK293T cells; format: cell-based; settings: 1000-fold excess, all time points
T1 construct: expressed in transfected cells; host or cells: HEK293T (transient, jetPEI)
T1 sequence (P21462 1-350): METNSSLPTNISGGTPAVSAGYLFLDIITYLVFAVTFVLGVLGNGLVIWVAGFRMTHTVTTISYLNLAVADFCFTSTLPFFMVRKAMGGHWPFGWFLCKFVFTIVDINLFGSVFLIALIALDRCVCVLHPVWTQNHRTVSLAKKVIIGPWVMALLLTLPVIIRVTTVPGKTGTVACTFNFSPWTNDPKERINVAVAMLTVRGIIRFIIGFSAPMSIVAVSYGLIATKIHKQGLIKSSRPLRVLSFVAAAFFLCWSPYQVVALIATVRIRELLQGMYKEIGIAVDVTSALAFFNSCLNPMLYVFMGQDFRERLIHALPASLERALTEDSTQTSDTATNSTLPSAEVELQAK
Procedure: The medium was removed from the wells and replaced by fresh complete growth medium (1.3 mL per well). The inhibitor solution BOC-FLFLF (1000-fold excess against the radiotracer, in PBS/DMSO) was added to the wells in the bottom row (100 µL per well). A solution of PBS and DMSO in the same ratio as the inhibitor solution was added to the wells of the top row (100 µL per well). To each well, the radiotracer solution in the desired concentration was added (100 µL per well). The plate was incubated at 37 °C for the time specified for each experiment. The supernatant was removed, and the cells were placed on ice and rinsed twice with ice cold PBS (1 mL per well). Sodium hydroxide (1 M, 2 × 1 mL) was added to detach the cells and the suspension was collected in counting tubes. The tubes were analyzed with an HIDEX gamma counter (HIDEX, Turku, Finland) using the appropriate detection window for the corresponding radionuclide.

[3] = biological target: T2, f-MVPIK(TAMRA)I bacterial signal peptide derivative; assay: confocal fluorescence binding to transfected HEK293T cells
T2 chain: For-MVPIK(TAMRA)I

[4] = biological target: T3, f-MVPIK(FITC)I bacterial signal peptide derivative; assay: as above
T3 chain: For-MVPIK(FITC)I

CC[C@H](C)[C@H](NC(=O)[C@H](CCCCNC(=O)CCCCCNC(=O)CN1CCN(CC(=O)O)CCN(CC(=O)O)CCN(CC(=O)O)CC1)NC(=O)[C@@H](NC(=O)[C@@H]1CCCN1C(=O)[C@@H](NC(=O)[C@H](CCSC)NC=O)C(C)C)[C@@H](C)CC)C(=O)O [[^177Lu]Lu-f-MVPIK(Ahx-DOTA)I, metal not drawn] (For-MVPIK([Ahx-DOTA])I-OH)
location of administered activity in scintigraphy images [1]: the majority of the administered activity was found in the bladder | residual activity in scintigraphy images [1]: only minimal residual activity | tissue uptake at 1 h (in vivo; biodistribution blood): 0.12 ± 0.02 %ID/g | tissue uptake at 1 h (in vivo; biodistribution bone): 0.75 ± 0.13 %ID/g | tissue uptake at 1 h (in vivo; biodistribution heart): 0.09 ± 0.01 %ID/g | tissue uptake at 1 h (in vivo; biodistribution lg intestine): 0.32 ± 0.12 %ID/g | tissue uptake at 1 h (in vivo; biodistribution lungs): 0.79 ± 0.12 %ID/g | tissue uptake at 1 h (in vivo; biodistribution muscle): 0.18 ± 0.03 %ID/g | tissue uptake at 1 h (in vivo; biodistribution pancreas): 0.1 ± 0.02 %ID/g | tissue uptake at 1 h (in vivo; biodistribution skin): 0.49 ± 0.08 %ID/g | tissue uptake at 1 h (in vivo; biodistribution sm intestine): 0.45 ± 0.09 %ID/g | tissue uptake at 1 h (in vivo; biodistribution stomach): 0.17 ± 0.05 %ID/g | tissue uptake at 1 h (in vivo; uptake kidneys): 3.35 ± 0.19 %ID/g | tissue uptake at 1 h (in vivo; uptake liver): 3.02 ± 0.23 %ID/g | tissue uptake at 1 h (in vivo; uptake spleen): 4.43 ± 0.38 %ID/g | more hydrophilic fragment (partial degradation) [2]: 24% | state of conjugate in human plasma [2]: completely oxidized

BOC-FLFLF
effect of blocking agent on cell-bound activity of the radiotracer (FPR1): considerably reduced the cell-bound activity

B1: FPR1 (protein)
chain: METNSSLPTNISGGTPAVSAGYLFLDIITYLVFAVTFVLGVLGNGLVIWVAGFRMTHTVTTISYLNLAVADFCFTSTLPFFMVRKAMGGHWPFGWFLCKFVFTIVDINLFGSVFLIALIALDRCVCVLHPVWTQNHRTVSLAKKVIIGPWVMALLLTLPVIIRVTTVPGKTGTVACTFNFSPWTNDPKERINVAVAMLTVRGIIRFIIGFSAPMSIVAVSYGLIATKIHKQGLIKSSRPLRVLSFVAAAFFLCWSPYQVVALIATVRIRELLQGMYKEIGIAVDVTSALAFFNSCLNPMLYVFMGQDFRERLIHALPASLERALTEDSTQTSDTATNSTLPSAEVELQAK
Kd [3]: 3.8 nM | Kd [4]: 1.1 nM
